# Test results: patent publication US20110311550A1 (Scripps Research, published 2011)
# B1: MAb AR1A (antibody, V domains shown)
# VH: LEQSGAEVKKPGSSVKVSCRASGSPYSSYTITWVRQAPGQGLEWMGGIILMTGKANYAQKFQGRVTITADRATATAYMEMSSLTSDDTAIYYCARDPYVYAGDDVRSLSRWGQGTPVIVSS
# VL: not shown
# notes: also called IgG1 of Fab B2
# B2: MAb AR1B (antibody, V domains shown)
# VH: LESGGGLVQPGGSLRLSCEASGYYFSSFAMSWVRQTPGKGLEWVSSIAGGTLGRTSYRDSVKGRFTISRDNSKNTVFLHMNNLRPEDTAVYYCAKDPLLFAGGPNWFDHWGQGTLVTVSS
# VL: not shown
# notes: also called IgG1 of Fab D1
# B3: MAb AR2A (antibody, V domains shown)
# VH: LEQSGAEMKKPGASLKVSCKTSGYTFDDYGVTWVRQAPGQGLEWMGWISAYSGNTFYARKFQGRVTMTTDPSTRTAYMELRSLRSDDTAVYFCARDRGLAINGVVFPYFGLDVWGQGTTVTVSS
# VL: ELTQSPVSLPVTPGEPASISCRSSQSLLHSNGNHYLDWYLQKPGQSPQLLMYLGSNRASGVPDRFSGSGSGTDFTLKISRVEAEDVGVYYCMQGLQTPWTFGQGTKVEIKR
# notes: also called IgG1 of Fab G
# B4: MAb AR3C (antibody, V domains shown)
# VH: LEQSGAEVKKPGSSVKVSCETSGGTLDNYALNWVRQAPGQGLEWIGGVVPLFGTTRNAQKFQGRVTISDDKSTGTGHMELRSLRSEDTAVYYCVRSVTPRYCGGGFCYGEFDYWGQGTLVTVSS
# VL: ELTQSPATLSVSPGERATLSCRASQSVSSNLAWYQQKPGQAPRLLIYGASTRATGIPARFSGSGSGTEFTLTVSRLEPEDSAVYFCQQYYRSPLTFGGGTKVEIKR
# notes: also called IgG1 of Fab H3
# B5: MAb AR3D (antibody, V domains shown)
# VH: LEQSGAEVKKPGSSVKVSCKASGDTFRSYVITWARQAPGQGLEWMGAIIPFFGTTNLAQKFQGRVTITADESTKTVYMDLSSLRSDDTAVYYCAKAGDLSVGGVLAGGVPHLRHFDPWGQGTLVTVSS
# VL: ELTQSPGTLSLSPGERATLSCRAGQTVASNSLAWYQHKPGQAPRLLIYGASIRASGIPDRFSGSGSGTDFTLTISRLEPEDFAVYYCQQYGLSSTFGQGTRLEIKR
# notes: also called IgG1 of Fab L4
# Molecular target: T1, E1E2 complex of HCV isolate H77 (genotype 1a), wild type (HCV isolate H77, UniProt P27958 192-383; P27958 384-746)
# Experiment: competition ELISA on H77 E1E2; competitor m42 (Fab P1)
row,Binder,% residual binding
1,B1,86%
2,B2,97%
3,B3,82%
4,B4,131%
5,B5,145%

# Molecular target: T2, vaccinia-expressed E1E2 complex, isolate HCV-1 (genotype 1a) (hepatitis C virus, isolate HCV-1, UniProt P26664 192-383; P26664 384-746)
# Experiment: competition ELISA on HCV-1 E1E2; competitor m2 (AR1B)
row,Binder,% residual binding
1,B1,15%
2,B2,6%
3,B3,57%
4,B4,91%
5,B5,92%

# Molecular target: T2, vaccinia-expressed E1E2 complex, …
# Experiment: competition ELISA on HCV-1 E1E2; competitor m6 (AR3C)
row,Binder,% residual binding
1,B1,37%
2,B2,66%
3,B3,86%
4,B4,8%
5,B5,13%

# Molecular target: H77 E1E2 mutant W529A (HCV isolate H77, UniProt P27958 192-383; P27958 384-746)
# Experiment: ELISA, alanine mutant E1E2
row,Binder,binding vs wild-type E1E2
1,B1,367%
2,B2,94%
3,B3,132%
4,B5,88%

# Molecular target: H77 E1E2 mutant H488A (HCV isolate H77, UniProt P27958 192-383; P27958 384-746)
# Experiment: ELISA, alanine mutant E1E2
row,Binder,binding vs wild-type E1E2
1,B1,91%
2,B2,63%
3,B3,72%
4,B5,123%

# Molecular target: H77 E1E2 mutant G523A (HCV isolate H77, UniProt P27958 192-383; P27958 384-746)
# Experiment: ELISA, alanine mutant E1E2
row,Binder,binding vs wild-type E1E2
1,B1,112%
2,B2,33%
3,B3,129%
4,B5,48%

# Molecular target: H77 E1E2 mutant N417A (HCV isolate H77, UniProt P27958 192-383; P27958 384-746)
# Experiment: ELISA, alanine mutant E1E2
row,Binder,binding vs wild-type E1E2
1,B1,17%
2,B2,54%
3,B3,58%
4,B5,74%

# Molecular target: H77 E1E2 mutant L413A (HCV isolate H77, UniProt P27958 192-383; P27958 384-746)
# Experiment: ELISA, alanine mutant E1E2
row,Binder,binding vs wild-type E1E2
1,B1,103%
2,B2,109%
3,B3,92%
4,B5,83%

# Molecular target: H77 E1E2 mutant P484A (HCV isolate H77, UniProt P27958 192-383; P27958 384-746)
# Experiment: ELISA, alanine mutant E1E2
row,Binder,binding vs wild-type E1E2
1,B1,38%
2,B2,45%
3,B3,77%
4,B5,90%

# Molecular target: H77 E1E2 mutant W420A (HCV isolate H77, UniProt P27958 192-383; P27958 384-746)
# Experiment: ELISA, alanine mutant E1E2
row,Binder,binding vs wild-type E1E2
1,B1,141%
2,B2,41%
3,B3,80%
4,B5,68%

# Molecular target: H77 E1E2 mutant G418A (HCV isolate H77, UniProt P27958 192-383; P27958 384-746)
# Experiment: ELISA, alanine mutant E1E2
row,Binder,binding vs wild-type E1E2
1,B1,51%
2,B2,143%
3,B3,83%
4,B5,60%

# Molecular target: H77 E1E2 mutant W549A (HCV isolate H77, UniProt P27958 192-383; P27958 384-746)
# Experiment: ELISA, alanine mutant E1E2
row,Binder,binding vs wild-type E1E2
1,B1,0%
2,B2,0%
3,B3,151%
4,B5,274%

# Molecular target: H77 E1E2 mutant T416A (HCV isolate H77, UniProt P27958 192-383; P27958 384-746)
# Experiment: ELISA, alanine mutant E1E2
row,Binder,binding vs wild-type E1E2
1,B1,23%
2,B2,99%
3,B3,99%
4,B5,90%

# Molecular target: H77 E1E2 mutant R543A (HCV isolate H77, UniProt P27958 192-383; P27958 384-746)
# Experiment: ELISA, alanine mutant E1E2
row,Binder,binding vs wild-type E1E2
1,B1,239%
2,B2,135%
3,B3,125%
4,B5,276%

# Molecular target: H77 E1E2 mutant Y485A (HCV isolate H77, UniProt P27958 192-383; P27958 384-746)
# Experiment: ELISA, alanine mutant E1E2
row,Binder,binding vs wild-type E1E2
1,B1,17%
2,B2,30%
3,B3,67%
4,B5,145%

# Molecular target: H77 E1E2 mutant S424A (HCV isolate H77, UniProt P27958 192-383; P27958 384-746)
# Experiment: ELISA, alanine mutant E1E2
row,Binder,binding vs wild-type E1E2
1,B1,103%
2,B2,103%
3,B3,91%
4,B5,6%

# Molecular target: H77 E1E2 mutant P545A (HCV isolate H77, UniProt P27958 192-383; P27958 384-746)
# Experiment: ELISA, alanine mutant E1E2
row,Binder,binding vs wild-type E1E2
1,B1,74%
2,B2,20%
3,B3,106%
4,B5,307%

# Molecular target: H77 E1E2 mutant T526A (HCV isolate H77, UniProt P27958 192-383; P27958 384-746)
# Experiment: ELISA, alanine mutant E1E2
row,Binder,binding vs wild-type E1E2
1,B1,81%
2,B2,48%
3,B3,101%
4,B5,135%

# Molecular target: H77 E1E2 mutant I414A (HCV isolate H77, UniProt P27958 192-383; P27958 384-746)
# Experiment: ELISA, alanine mutant E1E2
row,Binder,binding vs wild-type E1E2
1,B1,128%
2,B2,147%
3,B3,180%
4,B5,126%

# Molecular target: H77 E1E2 mutant G530A (HCV isolate H77, UniProt P27958 192-383; P27958 384-746)
# Experiment: ELISA, alanine mutant E1E2
row,Binder,binding vs wild-type E1E2
1,B1,227%
2,B2,50%
3,B3,53%
4,B5,24%

# Molecular target: H77 E1E2 mutant P491A (HCV isolate H77, UniProt P27958 192-383; P27958 384-746)
# Experiment: ELISA, alanine mutant E1E2
row,Binder,binding vs wild-type E1E2
1,B1,119%
2,B2,118%
3,B3,123%
4,B5,204%

# Molecular target: H77 E1E2 mutant P544A (HCV isolate H77, UniProt P27958 192-383; P27958 384-746)
# Experiment: ELISA, alanine mutant E1E2
row,Binder,binding vs wild-type E1E2
1,B1,69%
2,B2,16%
3,B3,126%
4,B5,318%

# Molecular target: H77 E1E2 mutant I422A (HCV isolate H77, UniProt P27958 192-383; P27958 384-746)
# Experiment: ELISA, alanine mutant E1E2
row,Binder,binding vs wild-type E1E2
1,B1,106%
2,B2,58%
3,B3,95%
4,B5,113%

# Molecular target: T2, vaccinia-expressed E1E2 complex, …
# Experiment: competition ELISA on HCV-1 E1E2; competitor m5 (AR3B)
row,Binder,% residual binding
1,B1,53%
2,B2,80%
3,B3,92%
4,B4,12%
5,B5,15%

# Molecular target: T1, E1E2 complex of HCV isolate H77 …
# Experiment: competition ELISA on H77 E1E2; competitor m40 (Fab N4)
row,Binder,% residual binding
1,B1,94%
2,B2,95%
3,B3,74%
4,B4,112%
5,B5,92%

# Molecular target: T2, vaccinia-expressed E1E2 complex, …
# Experiment: competition ELISA on HCV-1 E1E2; competitor m33 (9/75)
row,Binder,% residual binding
1,B1,24%
2,B2,38%
3,B3,82%
4,B4,51%
5,B5,53%
